B1: murine interleukin-22 with C-terminal 3x FLAG tag, without signal peptide (IL-22:3X FLAG, pVPL31125) (natural protein, mouse, UniProt Q9JJY9 34-179, looked up)
chain: LPVNTRCKLEVSNFQQPYIVNRTFMLAKEASLADNNTDVRLIGEKLFRGVSAKDQCYLMKQVLNFTLEDVLLPQSDRFQPYMQEVVPFLTKLSNQLSSCHISGDDQNIQKNVRRLKETVKKLGESGEIKAIGELDLLFMSLRNACV
notes: also called mIL-22; source: L. reuteri VPL31125 (accumulates mIL-22 intracellularly), total lysate; not shown: 3x FLAG, C-terminal, kept
B2: murine interleukin-22 with C-terminal 3x FLAG tag, cleaved from the fusion with a Lactobacillus reuteri signal peptide (SP:IL-22:3X FLAG, pVPL3776) (natural protein, mouse, UniProt Q9JJY9 34-179, looked up)
chain: B1 chain
notes: the rest kept the signal peptide; also called mIL-22; mature mIL-22; source: L. reuteri VPL3778 (engineered to secrete mIL-22), protein precipitated from culture supernatant; not shown: 3x FLAG, C-terminal, kept

Target: the molecule itself
Experiment: migration on a gel, Western blot; FLAG-tagged mIL-22 from L. reuteri grown in LDM3 at 37°C to OD600 3.5; total lysate (VPL31125) or protein precipitated from culture supernatant (VPL3778); samples prepared as in ref. 14; gel conditions not told

Protein | stoichiometry N
B1 | 4
B2 | 4

Source: publication PMC7316485, “Secretion of Recombinant Interleukin-22 by Engineered Lactobacillus reuteri Reduces Fatty Liver Disease in a Mouse Model of Diet-Induced Obesity” (mSphere, 2020)
